Measured values published in article PMC9188544, “Mechanism of glycogen synthase inactivation and interaction with glycogenin” (Nature Communications, 2022).
Residue numbers refer to the chain shown, from its start. In names and notes the source's numbering stands.

Key:
Assay in all cases: co-purification (HisTrap, TEV cleavage, Ni subtraction, Superdex200 gel filtration); GS WT or mutant co-expressed with GN(Y195F) in insect cells, both with N-terminal His6-TEV; lysate loaded on the HisTrap column
Conditions in all cases: partners not purified
[1] = target: T1, human glycogen synthase 1 (GS1) H610E (human, UniProt P13807 1-737, H610E, phosphorylation at S8, S641 and S641/S645 probed by immunoblot (Fig. 4b))
T1 construct: glycogen synthase 1 (muscle), human, encoded by GYS1, cDNA NM 002103; also called GS H610E; not shown: His6, N-terminal, cleaved
T1 sequence (looked up): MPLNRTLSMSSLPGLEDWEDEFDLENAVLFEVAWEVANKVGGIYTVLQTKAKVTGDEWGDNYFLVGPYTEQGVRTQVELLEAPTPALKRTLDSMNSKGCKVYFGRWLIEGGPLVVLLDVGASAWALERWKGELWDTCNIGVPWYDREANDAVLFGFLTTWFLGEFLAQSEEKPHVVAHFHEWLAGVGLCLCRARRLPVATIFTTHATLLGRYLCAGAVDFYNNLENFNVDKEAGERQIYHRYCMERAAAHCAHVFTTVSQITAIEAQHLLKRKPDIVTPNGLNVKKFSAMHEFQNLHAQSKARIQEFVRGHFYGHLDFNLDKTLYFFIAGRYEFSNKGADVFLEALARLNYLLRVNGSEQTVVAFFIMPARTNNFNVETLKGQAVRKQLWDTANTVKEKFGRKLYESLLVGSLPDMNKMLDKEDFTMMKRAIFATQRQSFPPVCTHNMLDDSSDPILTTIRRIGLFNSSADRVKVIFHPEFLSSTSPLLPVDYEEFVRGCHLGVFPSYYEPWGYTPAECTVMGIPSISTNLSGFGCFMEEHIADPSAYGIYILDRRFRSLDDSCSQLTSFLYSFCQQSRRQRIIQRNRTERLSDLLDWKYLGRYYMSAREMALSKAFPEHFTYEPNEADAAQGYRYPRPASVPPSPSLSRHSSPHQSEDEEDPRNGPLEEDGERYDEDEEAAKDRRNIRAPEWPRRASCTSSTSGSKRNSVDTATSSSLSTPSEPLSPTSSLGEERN

[2] = target: T2, human glycogen synthase 1 (GS1) R603A (human, UniProt P13807 1-737, R603A, phosphorylation at S8, S641 and S641/S645 probed by immunoblot (Fig. 4b))
T2 construct: glycogen synthase 1 (muscle), human, encoded by GYS1, cDNA NM 002103; also called GS R603A; not shown: His6, N-terminal, cleaved
T2 sequence (looked up): T1 sequence (looked up) with R603A, E610H

[3] = target: T3, human glycogen synthase 1 (GS1), wild type, pFastBac construct with N-terminal His6-TEV, co-expressed with … (human, UniProt P13807 1-737, phosphorylation at S8, S641 and S641/S645 probed by immunoblot (Fig. 4b))
T3 construct: glycogen synthase 1 (muscle), human, encoded by GYS1, cDNA NM 002103; also called GS WT; WT GS; not shown: His6, N-terminal, cleaved
T3 sequence (looked up): T1 sequence (looked up) with E610H

binding result [1]: binds
binding result [2]: binds
binding result [3]: binds
B1: human glycogenin 1 (GN1) Y195F, full length, non-glucosylated (enzyme, UniProt P46976-2 1-333, looked up)
chain: MTDQAFVTLTTNDAYAKGALVLGSSLKQHRTTRRLVVLATPQVSDSMRKVLETVFDEVIMVDVLDSGDSAHLTLMKRPELGVTLTKLHCWSLTQYSKCVFMDADTLVLANIDDLFDREELSAAPDPGWPDCFNSGVFVYQPSVETYNQLLHLASEQGSFDGGDQGILNTFFSSWATTDIRKHLPFIYNLSSISIFSYLPAFKVFGASAKVVHFLGRVKPWNYTYDPKTKSVKSEAHDPNMTHPEFLILWWNIFTTNVLPLLQQFGLVKDTCSYVNVEDVSGAISHLSLGEIPAMAQPFVSSEERKERWEQGQADYMGADSFDNIKRKLDTYLQ
notes: glycogenin 1, human, encoded by GYG1, cDNA NM 001184720, full length; expected ~37.5 kDa; the C-terminal GN34 region is modelled as residues 300-332, which fits the 333-residue isoform; Cloned in pFL (with untagged GS) and in pFastBac (co-infected with His6-TEV-GS WT or mutants); Both carry an N-terminal His6 tag and a cleavable site, so they are treated as one molecule; also called GN(Y195F); GN …
